Measurements: the supplement of paper PMC9112550, “Optimization of the antimicrobial peptide Bac7 by deep mutational scanning” (BMC Biology, 2022)

Tested on: Escherichia coli TOP10
Experiment: shrunken log2 fold change of peptide-encoding DNA abundance (4.5 h post-induction vs induction); higher = less antimicrobial activity (less host growth inhibition)
Settings: time post-induction: 4.5 h; library: site-saturation at positions 5, 18, 19, 20
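Further: peptides expressed intracellularly from a pBAD plasmid library in pooled LB shake-flask culture, induced with 0.3% L-arabinose, DNA abundance read by NGS, three biological replicates, DESeq2 with apeglm shrinkage.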

| Sequence | shrunken log2 fold change |
| --- | --- |
| RRIRSRPPRLPRPRPRPHKVPRP | -0.259 |
| RRIRVRPPRLPRPRPRPMSSPRP | 0.0619 |
| RRIRCRPPRLPRPRPRPEKPPRP | 0.118 |
| RRIRARPPRLPRPRPRPLFPPRP | 0.148 |
| RRIRNRPPRLPRPRPRPCLSPRP | -0.043 |
| RRIRDRPPRLPRPRPRPAAFPRP | 0.549 |
| RRIRGRPPRLPRPRPRPKGLPRP | 0.016 |
| RRIRCRPPRLPRPRPRPWRMPRP | -0.116 |
| RRIRIRPPRLPRPRPRPSYIPRP | -1.04 |
| RRIRKRPPRLPRPRPRPYYIPRP | -0.372 |
| RRIRFRPPRLPRPRPRPKWGPRP | 0.129 |
| RRIRPRPPRLPRPRPRPQSYPRP | -0.202 |
| RRIRVRPPRLPRPRPRPGCDPRP | 0.952 |
| RRIRMRPPRLPRPRPRPTFIPRP | -0.027 |
| RRIRWRPPRLPRPRPRPWHPPRP | 0.0551 |
| RRIRKRPPRLPRPRPRPQQEPRP | 0.0644 |
| RRIRPRPPRLPRPRPRPCSFPRP | -0.109 |
| RRIRKRPPRLPRPRPRPGGYPRP | 0.61 |
| RRIRVRPPRLPRPRPRPCRCPRP | -0.239 |
| RRIRIRPPRLPRPRPRPIFNPRP | -0.589 |
| RRIRSRPPRLPRPRPRPICTPRP | 0.166 |
| RRIRVRPPRLPRPRPRPNMLPRP | -0.432 |
| RRIRTRPPRLPRPRPRPDNHPRP | -1.07 |
| RRIRPRPPRLPRPRPRPQEQPRP | -0.0215 |
| RRIRHRPPRLPRPRPRPMPSPRP | 0.0183 |

| Sequence | shrunken log2 fold change |
| --- | --- |
| RRIRHRPPRLPRPRPRPWCGPRP | -0.181 |
| RRIRKRPPRLPRPRPRPIIFPRP | -0.147 |
| RRIRVRPPRLPRPRPRPCGIPRP | 0.0878 |
| RRIRDRPPRLPRPRPRPPYSPRP | -0.805 |
| RRIRDRPPRLPRPRPRPLWYPRP | -0.421 |
| RRIRGRPPRLPRPRPRPMIGPRP | 0.263 |
| RRIRKRPPRLPRPRPRPNDEPRP | 0.179 |
| RRIRYRPPRLPRPRPRPNMGPRP | -0.00101 |
| RRIRCRPPRLPRPRPRPMSRPRP | 0.0291 |
| RRIRVRPPRLPRPRPRPWYFPRP | -0.619 |
| RRIRYRPPRLPRPRPRPHADPRP | -0.0359 |
| RRIRQRPPRLPRPRPRPMHFPRP | 0.169 |
| RRIRWRPPRLPRPRPRPPDQPRP | 0.694 |
| RRIRCRPPRLPRPRPRPLVCPRP | -0.0544 |
| RRIRRRPPRLPRPRPRPTRPPRP | 1.02 |
| RRIRVRPPRLPRPRPRPHLHPRP | -0.279 |
| RRIRERPPRLPRPRPRPMREPRP | 0.992 |
| RRIRIRPPRLPRPRPRPRLWPRP | 0.0665 |
| RRIRQRPPRLPRPRPRPRIMPRP | -0.0396 |
| RRIRVRPPRLPRPRPRPSFKPRP | -0.202 |
| RRIRYRPPRLPRPRPRPNTDPRP | -0.964 |
| RRIRSRPPRLPRPRPRPCHLPRP | -0.0433 |
| RRIRYRPPRLPRPRPRPRSVPRP | -0.0717 |
| RRIRGRPPRLPRPRPRPKDDPRP | 0.293 |
| RRIRHRPPRLPRPRPRPPRKPRP | -0.0559 |

| Sequence | shrunken log2 fold change |
| --- | --- |
| RRIRWRPPRLPRPRPRPPAMPRP | 1.57 |
| RRIRNRPPRLPRPRPRPYICPRP | -0.0343 |
| RRIRARPPRLPRPRPRPHQEPRP | 0.568 |
| RRIRDRPPRLPRPRPRPDMRPRP | 0.0382 |
| RRIRMRPPRLPRPRPRPADPPRP | 0.36 |
| RRIRVRPPRLPRPRPRPNNKPRP | -0.472 |
| RRIRFRPPRLPRPRPRPTVPPRP | 0.341 |
| RRIRRRPPRLPRPRPRPLACPRP | 0.491 |
| RRIRQRPPRLPRPRPRPVGNPRP | -0.108 |
| RRIRSRPPRLPRPRPRPCCGPRP | 0.983 |
| RRIRNRPPRLPRPRPRPKNAPRP | -0.0561 |
| RRIRDRPPRLPRPRPRPKLAPRP | 0.271 |
| RRIRSRPPRLPRPRPRPEFYPRP | -0.131 |
| RRIRWRPPRLPRPRPRPGLTPRP | 0.0693 |
| RRIRTRPPRLPRPRPRPDPPPRP | 0.517 |
| RRIRGRPPRLPRPRPRPGAYPRP | 0.339 |
| RRIRSRPPRLPRPRPRPVCAPRP | 0.386 |
| RRIRYRPPRLPRPRPRPYWKPRP | -0.0135 |
| RRIRWRPPRLPRPRPRPSEFPRP | 0.144 |
| RRIRYRPPRLPRPRPRPMLYPRP | -0.877 |
| RRIRNRPPRLPRPRPRPKMWPRP | 0.279 |
| RRIRHRPPRLPRPRPRPFLAPRP | -0.336 |
| RRIRVRPPRLPRPRPRPTTIPRP | -0.0865 |
| RRIRYRPPRLPRPRPRPYPKPRP | -0.201 |
| RRIRERPPRLPRPRPRPTRLPRP | 0.576 |

| Sequence | shrunken log2 fold change |
| --- | --- |
| RRIRWRPPRLPRPRPRPVSRPRP | 0.616 |
| RRIRMRPPRLPRPRPRPFNVPRP | -0.0076 |
| RRIRLRPPRLPRPRPRPLNSPRP | -0.389 |
| RRIRYRPPRLPRPRPRPGATPRP | 0.128 |
| RRIRNRPPRLPRPRPRPEPNPRP | 0.0829 |
| RRIRARPPRLPRPRPRPLGWPRP | 0.951 |
| RRIRQRPPRLPRPRPRPHVQPRP | -0.46 |
| RRIRDRPPRLPRPRPRPKQRPRP | 0.314 |
| RRIRGRPPRLPRPRPRPEPVPRP | 0.806 |
| RRIRPRPPRLPRPRPRPYIMPRP | -0.976 |
| RRIRARPPRLPRPRPRPCQIPRP | -0.486 |
| RRIRRRPPRLPRPRPRPYLAPRP | -0.185 |
| RRIRWRPPRLPRPRPRPNNYPRP | -0.571 |
| RRIRVRPPRLPRPRPRPEQWPRP | 0.149 |
| RRIRSRPPRLPRPRPRPVHKPRP | -0.151 |
| RRIRQRPPRLPRPRPRPGIFPRP | 0.0804 |
| RRIRNRPPRLPRPRPRPHQLPRP | -0.0583 |
| RRIRMRPPRLPRPRPRPQVSPRP | 0.399 |
| RRIRIRPPRLPRPRPRPCRIPRP | -0.0204 |
| RRIRFRPPRLPRPRPRPSVEPRP | -0.18 |
| RRIRWRPPRLPRPRPRPRYAPRP | 0.32 |
| RRIRWRPPRLPRPRPRPQVMPRP | 0.209 |
| RRIRFRPPRLPRPRPRPHQYPRP | -0.88 |
| RRIRTRPPRLPRPRPRPHYTPRP | -1.01 |
| RRIRIRPPRLPRPRPRPIKLPRP | -0.289 |

| Sequence | shrunken log2 fold change |
| --- | --- |
| RRIRCRPPRLPRPRPRPQVSPRP | -0.0343 |
| RRIRARPPRLPRPRPRPCGAPRP | 0.737 |
| RRIRQRPPRLPRPRPRPTLTPRP | 0.0596 |
| RRIRERPPRLPRPRPRPSFWPRP | 0.132 |
| RRIRNRPPRLPRPRPRPFWQPRP | 0.201 |
| RRIRQRPPRLPRPRPRPGMLPRP | 0.105 |
| RRIRFRPPRLPRPRPRPTSHPRP | -0.193 |
| RRIRERPPRLPRPRPRPSHAPRP | -0.0485 |
| RRIRFRPPRLPRPRPRPLNPPRP | -0.1 |
| RRIRVRPPRLPRPRPRPHMSPRP | -0.405 |
| RRIRDRPPRLPRPRPRPINVPRP | 0.0039 |
| RRIRYRPPRLPRPRPRPTWGPRP | -0.19 |
| RRIRSRPPRLPRPRPRPFFRPRP | -0.0536 |
| RRIRSRPPRLPRPRPRPQLIPRP | -0.0943 |
| RRIRWRPPRLPRPRPRPPSIPRP | 0.357 |
| RRIRDRPPRLPRPRPRPCAHPRP | 0.07 |
| RRIRGRPPRLPRPRPRPGRQPRP | 0.654 |
| RRIRWRPPRLPRPRPRPCGWPRP | 0.314 |
| RRIRGRPPRLPRPRPRPQHQPRP | 0.524 |
| RRIRARPPRLPRPRPRPHTNPRP | -0.227 |
| RRIRTRPPRLPRPRPRPFSLPRP | -0.0845 |
| RRIRTRPPRLPRPRPRPTQTPRP | -0.0408 |
| RRIRHRPPRLPRPRPRPSMDPRP | -0.828 |
| RRIRVRPPRLPRPRPRPEHMPRP | -0.0512 |
| RRIRLRPPRLPRPRPRPGKQPRP | 0.0284 |

| Sequence | shrunken log2 fold change |
| --- | --- |
| RRIRKRPPRLPRPRPRPVCKPRP | 0.0228 |
| RRIRERPPRLPRPRPRPNSNPRP | -0.828 |
| RRIRRRPPRLPRPRPRPSEYPRP | -0.192 |
| RRIRHRPPRLPRPRPRPYIHPRP | -0.322 |
| RRIRSRPPRLPRPRPRPIFRPRP | 0.0112 |
| RRIRGRPPRLPRPRPRPNGMPRP | 0.106 |
| RRIRERPPRLPRPRPRPLDRPRP | 0.0551 |
| RRIRNRPPRLPRPRPRPMDQPRP | -0.01 |
| RRIRCRPPRLPRPRPRPITTPRP | -0.197 |
| RRIRERPPRLPRPRPRPTVRPRP | -0.00266 |
| RRIRHRPPRLPRPRPRPHVFPRP | -0.0684 |
| RRIRGRPPRLPRPRPRPCAIPRP | 2.08 |
| RRIRSRPPRLPRPRPRPYDFPRP | -0.195 |
| RRIRVRPPRLPRPRPRPKYCPRP | -0.221 |
| RRIRFRPPRLPRPRPRPKNKPRP | -0.384 |
| RRIRSRPPRLPRPRPRPMYYPRP | -0.468 |
| RRIRGRPPRLPRPRPRPQQQPRP | 0.843 |
| RRIRDRPPRLPRPRPRPIVIPRP | -0.259 |
| RRIRFRPPRLPRPRPRPGHWPRP | 0.0649 |
| RRIRLRPPRLPRPRPRPIIQPRP | -0.439 |
| RRIRCRPPRLPRPRPRPCCNPRP | -0.188 |
| RRIRNRPPRLPRPRPRPTAFPRP | 0.00576 |
| RRIRERPPRLPRPRPRPNIGPRP | -0.00187 |
| RRIRARPPRLPRPRPRPVNAPRP | -0.0521 |
| RRIRERPPRLPRPRPRPLFLPRP | -0.306 |
